In patent publication US20220054706A1 (KING ABDULLAH UNIVERSITY OF SCIENCE AND TECHNOLOGY, published 2022):

Target: the molecule itself
Test: 2D NMR (NOESY/TOCSY) of the self-assembling peptide in 90% H2O-10% D2O
Protocol: 2D NMR of peptide solution was carried out to study the spatial structure during the assembly process. These NMR spectra were recorded on a Bruker Avance III 600 MHz equipped with a 5 mm Z-gradient SmartProbe BB(F)-H-D (BrukerBioSpin™, Rheinstetten, Germany). The samples were prepared from 10 mg of peptide in a mixture of 900 μL of 1 mM 2,2-Dimethyl-2-silapentane-5-sulfonate (DSS) and 100 μL of D₂O. ¹H-NMR was recorded by collecting 32 scans using excitation sculping with gradients pulse program (zgesgp) for water suppression.¹⁰⁹ COSY and TOCSY were then conducted to see the correlation between hydrogens that were coupled to each other. COSY was performed using a time domain of 4096 (F2)×512 (F1), 16 number of scans, a pulse program of cosydfgpph19, and 3-9-19 pulse sequence for water suppression.¹¹⁰⁻¹¹² For TOCSY, the parameters with time domain of 8192 (F2)×512 (F1), 16 number of scans, a pulse program of dipsi2gpph19, and 3-9-19 pulse sequence for water suppression were set. Finally, the NOESY acquisition was carried out with a time-domain size of 2048 (F2)×512 (F1), 32 scan numbers, a pulse program of noesyesgpph19, a mixing time of 400 ms, and water suppression using 3-9-19 pulse sequence. Broker Topspin 3.5pI7 software was used in all NMR experiments for both data collection and spectral analyses.

B1: Ac-Ile-Val-Phe-Lys-NH2 (IVFK) (peptide)
peptide: Ac-IVFK-NH2
notes: Synthetic self-assembling tetrapeptide; In the NMR experiment it stood at 10 mg in 900 uL of 1 mM DSS plus 100 uL D2O; also called aromatic IVFK
binding result: binds
